# Test results taken from the RNAGym collection of RNA variant scans (doi:10.1073/pnas.2313332121).
# B1: TPR t1 (parent)
# chain: GACCAAUCUGCCCUCAGAGCUCGAGAACAUCUUCGGAUGCAGAGGAGGCAGGCUUCGGUGGCGCGAUAGCGCCAACGUCCUCAACCUCCAAUGCAUCCCACCACAUGAUGAUGCCUGAAGAGCCUUGGUUUUUUG
# Variants of: B1
# Assay: polymerase ribozyme fitness, log enrichment relative to wild type (log ratio); higher = more active; in vitro selection for triplet polymerase activity
# Method in brief: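 Libraries of mutants in each subunit of a heterodimeric triplet polymerase ribozyme were generated by PCR and transcribed. In triplicate, each went through one in vitro selection round: annealing with biotinylated primer, partner subunit and triplets; frozen incubation at −7 °C; gel excision of extended constructs; streptavidin-bead capture; RT-PCR. Fitness, taken from Illumina sequencing of input and output libraries, is the logarithm of a genotype's enrichment over wild-type enrichment, averaged across replicates with inverse-variance weights. The logarithm is base 2, and genotypes needed ≥10 input reads and ≥1 read per output to be kept.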
row,Variant,polymerase ribozyme fitness (log ratio)
1,A26G C28G C104U,-2.85
2,G25U C56A,-4.45
3,A27G G60C,-2.15
4,A27G G60U,-1.6
5,A27C G69U C73A,-1.89
6,C28G A111U,-2.62
7,A26C C53U U54A G60U,-5.26
8,A26U U129G,-3.51
9,A27C U32C G39A C98G,-7.35
10,A27G A46U C102U C115A G120A,-7.01
11,G23U A26G G63U C82G U133A,-7.09
12,A24G G57A U78C C101A,-4.85
13,A26G A27U G36A U112G U129G,-5.51
14,A27U C62U,-3.58
15,A26U C56U C72U,-3.04
16,A26G A37U C53G,-3.12
17,A27U C94G C99G C104U G110U C114G,-6.8
18,A24G A27G,-4.03
19,A27G A50G U81A,-1.56
20,A26G A50G C56G A74G C82G,-4.41
21,G23U G51A C70A C101A G110A C114A,-6.74
22,G23C G60A G77C C98G A119U,-7.44
23,G25C A83C C94G A103U C124G U125C,-8.57
24,C28A U30G A43G G110C,-6.92

row,Variant,polymerase ribozyme fitness (log ratio)
1,A26G G60C C86G,-3.98
2,A24U G61U,-6.34
3,A24G C97U G120U,-2.28
4,A26G A29G C80G C86U A119G,-3.74
5,C28A G110A,-0.364
6,A26G G61A C82A U112A U131C,-0.172
7,A27U A46C U116C,-6.31
8,A24G U59A U78C C85G U106G,-3.94
9,A26U C73U U81A,-3.86
10,G25C G69U,-4.39
11,C28A A83U G110U,1.66
12,A24G G36U C56U C101U,-3.37
13,A26U C62U U129A,-5.15
14,A26G U112A,-0.933
15,G25C G61C U92G G117U,-6.32
16,A26G G71A C88G G120C,-2.52
17,A27G C56A,-2.09
18,A26U U87G,-2.62
19,A24U U112A,-4.52
20,C28A C62A,-5.73
21,A26U C53U,-3.26
22,A26U C98U,-4.2
23,C28G C73U A119G,-1.62
24,A26U G60U U78C,-3.09

row,Variant,polymerase ribozyme fitness (log ratio)
1,A27C G61U,-3.27
2,A26U C49U,-3.62
3,A24G G51U G69A G113C G120U,-6.67
4,A24G C34A C53U U87G U132A,-4.54
5,G25A G60U G117A,-7.98
6,G25U C64G C88A G110A G120C C123U,-6.08
7,A27C G48A C86G U92A A103G A105C U109G,-7.14
8,A27C G71A,-4
9,A26C G61U U78C C80U A83G U116G,-6.77
10,A26U A41C A46U C101U,-6.28
11,A26U U54C C72U U133A,-2.18
12,A27U A84U,-3.79
13,A27U A84G,-4.18
14,G25C A29G C64A C79G A90C G117U A119G,-7.04
15,A27U C28G G63U G110C,-5.36
16,A24G C56G G113A G120A G128A,-7.42
17,A26C G117U A119U,-7.54
18,A27G G128C,-4.95
19,A26G C40U G63C U81C U130A,-4.66
20,A24U U30G G63U C102G,-5.42
21,A26U A95G,-2.46
22,A27U C70A C115G U130G,-6.2
23,A24U U38A C72U C80G C99U,-7.56
24,A26G C80U G120U,-3.13

row,Variant,polymerase ribozyme fitness (log ratio)
1,G25U A121C,-4.83
2,A26U A37C G77A C124G,-1.36
3,A24G A43G,-3.13
4,A27G C72U C101A C104A,-4.48
5,A24U G61U A91G G120U C124U G135A,-6.15
6,A24U C124A,-3.28
7,C28A C72G C123U U125C,-4.42
8,G25U C72U G110U C114U,-6.32
9,C28G C40U C86A,-3.65
10,C28A A66C A111U C115G,-6.53
11,A26U G69U C79G,-3.29
12,A26G C89G,-3.55
13,A26G C89U,-2.94
14,A27U C82G U106A G120C,-1.62
15,A26G A29G C72G U78A A118U,-3.07
16,C28G A83G,-3.41
17,A24G C72U,-1.6
18,A26U G71A C82U,-4.08
19,C28A U112C U116G U130A U132C,-5.19
20,A27G U106G U112G,-1.51
21,A26G C114U,-3.27
22,A24G U38G C56A C80A,-5.92
23,A24G A27G G120A,-3.91
24,C28G A50U,-4.17

row,Variant,polymerase ribozyme fitness (log ratio)
1,A26U U130A,-3.88
2,A26G U133G,-2.68
3,A27U C73U,-2.99
4,A27C C56G U78C C80U U81A,-3.58
5,A24G U55G C64U,-1.64
6,A24G C53U C62U C89U G113A,-5.19
7,A24G C115U,-2.59
8,A24C C73A,-6.46
9,A27G C76U C89U G93A,-3.34
10,A24U G61U C88A G117C,-6.74
11,A27G G36U G42C G120A,-5.26
12,A24G U81A,-2.64
13,A27G C34U,-4.85
14,A24G C40U G71A C114A,-5.13
15,G25A C62A C86U C102U G120C,-7.36
16,A27G G45U A46C C49U C124A G128A,-5.34
17,A27G U125G,-2.34
18,A26U G122A G127U U133G,-4.8
19,G25U G110U,-5.41
20,A27U C97U U130C,-3.37
21,A26U U96A U116G A121G,-3.67
22,A27C C62A A119G A121U,-2.98
23,A27C G51A C76G,-5.75
24,A26U C115U,-4.53

row,Variant,polymerase ribozyme fitness (log ratio)
1,A26C G117C G122A,-7.15
2,A27U U96G G110U,-7.43
3,A26G G77U,-2.79
4,A27G U59C A68G C99U U112A,-5.37
5,A26G A37U C49U G120U,-2.45
6,A27U G60A,-3.35
7,G23U C34A G47A C53G G110C U129G,-7.48
8,A26C G120C G127A,-5.53
9,A27C G39A G61A C94A U112G,-4.85
10,A26C C53U C56G,-5.02
11,A26C G60C,-6.06
12,A27C G44C C73G,-5.57
13,A27G C49A,-2
14,G25U A46G,-6.02
15,A27U A66C A83U,-4.44
16,A26U G51A C64U A91U G120A C124G,-6.85
17,A26G G71A A84C C89U G93C C114U,-6.05
18,A27C C104U,-3.21
19,A26G C49A U55C C62U G63A A83C U109A G113A,-6.66
20,A27G C62G A83G C86U,-5.4
21,A24G U112G,-1.29
22,A27G A50U,-2.6
23,A24G G52A A66U C73U A91G,-4.6
24,A27G C49G C64U,-2.51

row,Variant,polymerase ribozyme fitness (log ratio)
1,A27U C124U,-0.949
2,A26U C53U C56G A100C,-5.42
3,A26G C34U C85U C124G,-2.34
4,A27G G47A C53G,-2.77
5,A26U G93U,-3.09
6,A24C C31G U32G C62U C114G,-8.07
7,A27C G60A,-3.37
8,A26G G36U C82G,-4.05
9,A27U C89U,-2.8
10,C28A G61C,-5.18
11,A27U C70U G122A,-3.96
12,A26G C72A C86G A111U G122U,-3.76
13,A26G C53U C101A,-3.58
14,A27C U112C G120C U126C U131A,-3.22
15,A24C C124A,-5.24
16,C28A G69C C124A,-4.58
17,A24G U109C,-5.04
18,A27U U87C,-2.89
19,A24G G58U G61C,-1.68
20,G25A A26G A46U G63A A118C G120A,-5.5
21,A27U C123G,-0.165
22,A27U C123U,-1.65
23,A24C G36U A37U G42U G61A C79A G110C C123U,-7.34
